According to the supplement of paper PMC10567573:

B1: MTMR15 (parent)
chain: FSPDFTLRNTLKSTSEDSLVKQEC

Variants of: B1
Test: protein stability index of a GFP-peptide fusion (GPS, HEK-293T) (PSI 1-6); higher = more stable
Details: c terminus: a fixed tail appended
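Further: lentivirally expressed fusions sorted by FACS into six bins by GFP to DsRed ratio, PSI derived from sequencing read proportions per bin multiplied by bin number.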

Variant | protein stability index
FSPDFALRNTLKSTSEDSLVKQEC | 1.72
FSPDFELRNTLKSTSEDSLVKQEC | 3.39
FSPDFFLRNTLKSTSEDSLVKQEC | 1.84
FSPDFILRNTLKSTSEDSLVKQEC | 3.13
FSPDFKLRNTLKSTSEDSLVKQEC | 2.01
FSPDFDLRNTLKSTSEDSLVKQEC | 2.7
FSPDFYLRNTLKSTSEDSLVKQEC | 2.46
FSPDFWLRNTLKSTSEDSLVKQEC | 1.84
FSPDFVLRNTLKSTSEDSLVKQEC | 1.82
FSPDFPLRNTLKSTSEDSLVKQEC | 1.92
FSPDFRLRNTLKSTSEDSLVKQEC | 1.77
FSPDFCLRNTLKSTSEDSLVKQEC | 2.73
FSPDFGLRNTLKSTSEDSLVKQEC | 2.63
FSPDFLLRNTLKSTSEDSLVKQEC | 2.8
FSPDFNLRNTLKSTSEDSLVKQEC | 1.77
FSPDFHLRNTLKSTSEDSLVKQEC | 1.45
FSPDFMLRNTLKSTSEDSLVKQEC | 1.92
FSPDFSLRNTLKSTSEDSLVKQEC | 2.27
FSPDFQLRNTLKSTSEDSLVKQEC | 2.24
FSSDFTLRNTLKSTSEDSLVKQEC | 2.67
FSWDFTLRNTLKSTSEDSLVKQEC | 1.97
FSIDFTLRNTLKSTSEDSLVKQEC | 2.44
FSEDFTLRNTLKSTSEDSLVKQEC | 3.14
FSVDFTLRNTLKSTSEDSLVKQEC | 2.58

Variant | protein stability index
FSADFTLRNTLKSTSEDSLVKQEC | 1.97
FSKDFTLRNTLKSTSEDSLVKQEC | 2.26
FSLDFTLRNTLKSTSEDSLVKQEC | 2.24
FSNDFTLRNTLKSTSEDSLVKQEC | 3.08
FSFDFTLRNTLKSTSEDSLVKQEC | 2.83
FSQDFTLRNTLKSTSEDSLVKQEC | 2.83
FSTDFTLRNTLKSTSEDSLVKQEC | 2.76
FSRDFTLRNTLKSTSEDSLVKQEC | 1.98
FSGDFTLRNTLKSTSEDSLVKQEC | 2.27
FSHDFTLRNTLKSTSEDSLVKQEC | 3.05
FSDDFTLRNTLKSTSEDSLVKQEC | 3.91
FSMDFTLRNTLKSTSEDSLVKQEC | 1.99
FSCDFTLRNTLKSTSEDSLVKQEC | 2.64
FSYDFTLRNTLKSTSEDSLVKQEC | 2.76
FSPLFTLRNTLKSTSEDSLVKQEC | 1.94
FSPAFTLRNTLKSTSEDSLVKQEC | 2.44
FSPQFTLRNTLKSTSEDSLVKQEC | 1.45
FSPSFTLRNTLKSTSEDSLVKQEC | 1.9
FSPTFTLRNTLKSTSEDSLVKQEC | 2.07
FSPNFTLRNTLKSTSEDSLVKQEC | 2.23
FSPYFTLRNTLKSTSEDSLVKQEC | 3.03
FSPEFTLRNTLKSTSEDSLVKQEC | 1.94
FSPKFTLRNTLKSTSEDSLVKQEC | 2.23
FSPFFTLRNTLKSTSEDSLVKQEC | 1.53

Variant | protein stability index
FSPRFTLRNTLKSTSEDSLVKQEC | 2.65
FSPIFTLRNTLKSTSEDSLVKQEC | 2.05
FSPHFTLRNTLKSTSEDSLVKQEC | 1.95
FSPCFTLRNTLKSTSEDSLVKQEC | 1.78
FSPWFTLRNTLKSTSEDSLVKQEC | 1.96
FSPPFTLRNTLKSTSEDSLVKQEC | 4
FSPMFTLRNTLKSTSEDSLVKQEC | 1.61
FSPGFTLRNTLKSTSEDSLVKQEC | 2.65
FSPVFTLRNTLKSTSEDSLVKQEC | 2.01
YSPDFTLRNTLKSTSEDSLVKQEC | 2.04
VSPDFTLRNTLKSTSEDSLVKQEC | 4.83
SSPDFTLRNTLKSTSEDSLVKQEC | 4.81
WSPDFTLRNTLKSTSEDSLVKQEC | 4.39
RSPDFTLRNTLKSTSEDSLVKQEC | 4.98
TSPDFTLRNTLKSTSEDSLVKQEC | 5.28
FFPDFTLRNTLKSTSEDSLVKQEC | 4.04
FWPDFTLRNTLKSTSEDSLVKQEC | 3.6
FRPDFTLRNTLKSTSEDSLVKQEC | 4.02
FHPDFTLRNTLKSTSEDSLVKQEC | 2.55
FCPDFTLRNTLKSTSEDSLVKQEC | 2.19
FDPDFTLRNTLKSTSEDSLVKQEC | 5
FQPDFTLRNTLKSTSEDSLVKQEC | 3.32
FTPDFTLRNTLKSTSEDSLVKQEC | 2.23
FGPDFTLRNTLKSTSEDSLVKQEC | 2.48

Variant | protein stability index
FKPDFTLRNTLKSTSEDSLVKQEC | 4.27
FAPDFTLRNTLKSTSEDSLVKQEC | 2.08
FPPDFTLRNTLKSTSEDSLVKQEC | 2.9
FNPDFTLRNTLKSTSEDSLVKQEC | 3.68
FMPDFTLRNTLKSTSEDSLVKQEC | 3.69
FVPDFTLRNTLKSTSEDSLVKQEC | 2.88
FEPDFTLRNTLKSTSEDSLVKQEC | 4.8
FIPDFTLRNTLKSTSEDSLVKQEC | 1.92
FYPDFTLRNTLKSTSEDSLVKQEC | 4.52
FLPDFTLRNTLKSTSEDSLVKQEC | 3.19
FSPDFTSRNTLKSTSEDSLVKQEC | 2.08
FSPDFTKRNTLKSTSEDSLVKQEC | 2.39
FSPDFTVRNTLKSTSEDSLVKQEC | 1.83
FSPDFTRRNTLKSTSEDSLVKQEC | 2.56
FSPDFTNRNTLKSTSEDSLVKQEC | 1.91
FSPDFTARNTLKSTSEDSLVKQEC | 1.99
FSPDFTQRNTLKSTSEDSLVKQEC | 2.16
FSPDFTYRNTLKSTSEDSLVKQEC | 2.27
FSPDFTMRNTLKSTSEDSLVKQEC | 3.06
FSPDFTGRNTLKSTSEDSLVKQEC | 2.48
FSPDFTWRNTLKSTSEDSLVKQEC | 2.16
FSPDFTERNTLKSTSEDSLVKQEC | 2.99
